Legend:
[1] = system: VCaP and 22Rv1 cells; test: Proliferation assay, viable cells by trypan blue exclusion; assay type: cell-based, human
Method: (§1) NXTAR-N5 oligonucleotide was synthesized by IDT, and the oligonucleotide sequence is provided in TABLE 1 and FIG. 7C (* represents phosphorothioate bond modifications to avoid degradation by exonucleases). Equal numbers of VCaP and 22Rv1 cells were transfected with NXTAR-N5 or globin-derived oligonucleotide using X-tremeGENE360 (Sigma-Aldrich, Cat #08724121001), and the number of live cells was counted 96 h post-transfection using trypan blue exclusion method (Sigma, Cat #T8154). RNA was prepared from these cells, and qRT-PCR [SYBR PremixEx Taq II (Tli RNase H Plus)ROX, Clontech Takara, Cat #RR82LR] for AR and AR-V7 was performed as described earlier (see e.g., Mahajan et al. (2017) Cancer Cell).
The 22Rv1, VCaP, or LNCaP cells were retrovirally infected with control or NXTAR vectors and selected in puromycin medium containing 5% charcoal-stripped serum. Equal numbers of selected cells were seeded in 6-well plates followed by treatment with either (R)-9b, enzalutamide (Selleck Chemicals, Cat #S1250), or abiraterone (Selleck Chemicals, Cat #52246), and the number of viable cells was counted by trypan blue exclusion assay.

[2] = molecular target: T1, EZH2 (Homo sapiens, UniProt Q15910); test: Pull-down from VCaP cell lysates with biotinylated oligos, immunoblotting for EZH2; assay type: binding; details: VCaP cells with retroviral expression of NXTAR
T1 construct: endogenous in cells; host or cells: VCaP cells (some retrovirally infected to over-express NXTAR lncRNA)
T1 sequence (Q15910 whole entry): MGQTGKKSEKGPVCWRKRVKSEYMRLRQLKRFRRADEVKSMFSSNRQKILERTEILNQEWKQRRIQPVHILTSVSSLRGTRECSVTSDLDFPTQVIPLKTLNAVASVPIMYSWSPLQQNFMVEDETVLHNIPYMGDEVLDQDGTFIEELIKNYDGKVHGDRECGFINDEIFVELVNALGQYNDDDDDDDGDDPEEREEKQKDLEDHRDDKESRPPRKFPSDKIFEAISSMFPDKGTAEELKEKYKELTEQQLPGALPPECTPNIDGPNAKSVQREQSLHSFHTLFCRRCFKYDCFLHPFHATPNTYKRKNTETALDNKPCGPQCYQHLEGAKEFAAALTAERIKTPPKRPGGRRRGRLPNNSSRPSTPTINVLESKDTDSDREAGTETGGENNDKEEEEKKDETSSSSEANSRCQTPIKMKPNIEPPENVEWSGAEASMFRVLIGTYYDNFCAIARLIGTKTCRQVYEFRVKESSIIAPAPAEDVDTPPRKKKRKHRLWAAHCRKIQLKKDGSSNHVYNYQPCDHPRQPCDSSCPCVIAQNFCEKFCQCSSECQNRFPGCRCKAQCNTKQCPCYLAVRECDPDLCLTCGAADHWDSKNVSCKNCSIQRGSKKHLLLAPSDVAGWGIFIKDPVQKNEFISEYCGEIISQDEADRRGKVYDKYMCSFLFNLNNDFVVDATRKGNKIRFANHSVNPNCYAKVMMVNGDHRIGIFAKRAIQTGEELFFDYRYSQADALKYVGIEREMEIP
T1 sequence (O75530 whole entry partner): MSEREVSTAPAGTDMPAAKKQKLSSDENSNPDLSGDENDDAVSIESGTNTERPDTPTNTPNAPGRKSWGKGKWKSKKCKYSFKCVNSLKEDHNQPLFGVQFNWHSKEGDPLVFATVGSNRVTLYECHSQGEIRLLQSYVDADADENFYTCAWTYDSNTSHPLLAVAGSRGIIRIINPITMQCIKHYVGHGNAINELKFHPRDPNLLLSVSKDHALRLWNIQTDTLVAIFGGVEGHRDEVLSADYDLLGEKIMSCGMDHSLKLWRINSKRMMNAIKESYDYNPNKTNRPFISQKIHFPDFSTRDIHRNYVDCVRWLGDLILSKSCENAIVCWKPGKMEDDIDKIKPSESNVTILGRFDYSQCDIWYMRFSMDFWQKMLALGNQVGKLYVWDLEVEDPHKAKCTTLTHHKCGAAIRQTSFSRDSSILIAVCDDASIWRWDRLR
T1 sequence (Q15022 whole entry partner): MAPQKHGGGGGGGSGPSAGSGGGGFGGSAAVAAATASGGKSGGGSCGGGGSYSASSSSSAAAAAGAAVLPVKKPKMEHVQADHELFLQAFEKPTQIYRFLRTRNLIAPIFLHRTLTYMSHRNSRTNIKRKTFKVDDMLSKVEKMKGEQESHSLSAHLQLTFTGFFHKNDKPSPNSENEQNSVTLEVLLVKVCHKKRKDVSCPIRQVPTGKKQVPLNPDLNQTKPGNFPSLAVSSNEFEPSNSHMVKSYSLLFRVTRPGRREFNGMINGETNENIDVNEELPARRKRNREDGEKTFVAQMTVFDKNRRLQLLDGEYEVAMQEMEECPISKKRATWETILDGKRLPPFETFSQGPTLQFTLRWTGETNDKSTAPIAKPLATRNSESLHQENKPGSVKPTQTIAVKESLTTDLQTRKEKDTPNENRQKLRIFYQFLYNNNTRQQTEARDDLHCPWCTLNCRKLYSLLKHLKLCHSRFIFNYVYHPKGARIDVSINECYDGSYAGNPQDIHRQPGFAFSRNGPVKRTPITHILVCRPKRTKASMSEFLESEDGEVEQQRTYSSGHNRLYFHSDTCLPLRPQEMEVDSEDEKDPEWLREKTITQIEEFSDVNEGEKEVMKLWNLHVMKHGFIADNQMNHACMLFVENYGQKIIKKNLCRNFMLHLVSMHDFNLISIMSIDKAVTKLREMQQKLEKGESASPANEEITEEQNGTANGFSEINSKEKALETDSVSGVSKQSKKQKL
T1 sequence (Q09028 whole entry partner): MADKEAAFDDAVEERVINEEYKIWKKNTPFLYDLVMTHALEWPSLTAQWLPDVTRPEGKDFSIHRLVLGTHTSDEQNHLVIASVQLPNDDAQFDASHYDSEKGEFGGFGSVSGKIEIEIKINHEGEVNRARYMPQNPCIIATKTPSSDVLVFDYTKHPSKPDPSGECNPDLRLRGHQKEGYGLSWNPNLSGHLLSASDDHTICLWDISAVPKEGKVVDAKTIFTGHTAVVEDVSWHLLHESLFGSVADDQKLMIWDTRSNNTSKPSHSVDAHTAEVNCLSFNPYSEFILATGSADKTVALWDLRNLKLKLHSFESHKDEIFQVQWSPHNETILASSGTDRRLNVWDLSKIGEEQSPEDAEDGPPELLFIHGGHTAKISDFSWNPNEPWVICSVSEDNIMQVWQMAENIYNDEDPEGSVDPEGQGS
Method: The biotinylated oligonucleotides were incubated with lysates (2 h), and the lysates were incubated with streptavidin magnetic beads overnight. Beads attached to RNAs were divided equally and processed for either RNA isolation or western blotting. For RNA isolation, beads were washed three times and then separated using proteinase K treatment. RNA was then isolated and purified, and DNA was digested in the process. The real-time quantitative RT-PCR was performed on isolated RNA to check the efficiency of pull-down of NXTAR RNA. The remaining beads were heated at 80° C. for 5 min in loading buffer, followed by western blotting. The blots were probed with EZH2 (CST, 5246S; RRID:AB_10694683) antibody and Actin (SCBT, sc-47778; RRID:AB_2714189) was used as the loading control.
Biotin-labeled NXTAR-N5 (complementary to the AR promoter) and globin oligos were synthesized (IDT) (see e.g., TABLE 1). ChIRP was performed using lysate from formaldehyde-fixed VCaP cells and oligos that were immobilized to streptavidin beads, as described earlier (see e.g., Chu and Chang (2016) Methods Mol Bio). The amount of the chromatin DNA was determined by real-time PCR. For detection of NXTAR-N5/EZH2 binding, biotin-labeled NXTAR-N5 oligo and control globin oligo were incubated with VCaP cell lysates and were subjected to chromatin pull-down, followed by immunoblotting with EZH2 antibodies.

[3] = system: AR; test: qRT-PCR of AR and AR target gene expression in prostate cancer cells; assay type: cell-based, human
Method: as §1
(§2) Cells were transfected, infected or treated [(R)-9b; EPZ6438, TargetMol, Cat #T1788] accordingly. RNA was used for cDNA preparation using High-Capacity cDNA Reverse Transcription Kit (Thermo Scientific Cat #4368814). Resulting cDNA was then analyzed by qPCR using an Applied Biosystems 7900 Real-Time PCR System (Thermo Scientific) and SYBR Green PCR Master Mix [SYBR PremixEx Taq II (Tli RNase H Plus) ROX, Clontech Takara, Cat #RR82LR] according to the manufacturers' instructions. Dissociation curves were generated for each plate to verify the integrity of the primers. The relative expression of RNAs was calculated using the comparative Ct or standard curve method. 18S rRNA or actin were used as internal controls.

[4] = system: AR-V7; test: qRT-PCR of AR-V7 expression in prostate cancer cells; assay type: cell-based, human; details: 22Rv1 cells, reintroduction of NXTAR
Method: as §1
as §2, with “18S rRNA or actin were used as internal controls.” left out

[5] = system: VCaP cells; test: Xenograft of VCaP cells infected with pBABE vector or NXTAR in SCID mice; assay type: in vivo
Method: All animal experiments were performed using the standards for humane care in accordance with the National Institutes of Health Guide for the Care and Use of Laboratory Animals. Mice breeding and colony maintenance were performed according to IACUC protocols approved by Washington University in St. Louis. 1.5×10^6 VCaP cells were suspended in 200 μL of PBS with 50% Matrigel (Corning, Cat #354428) and implanted subcutaneously into the dorsal flank of castrated 6-week-old male SCID mice (Charles River, Strain code: 236). Once the tumors reached approximately 100 mm^3, mice were randomized and injected subcutaneously with (R)-9b mesylate salt suspended in 6% Captisol (Cydex Pharmaceuticals). Tumor volumes were measured twice weekly using calipers. At the end of the study, all mice were humanely euthanized and tumors were extracted and weighed. To assess the role of NXTAR in tumor growth, 1.5×10^6 VCaP cells that were either infected with pBABE vector or NXTAR and selected with puromycin (Gibco, Cat #A1113803), implanted and growth of tumors was recorded. The personnel taking tumor volume measurement were blinded for the treatment groups.
To examine the direct effect of NXTAR restoration on prostate tumor growth, equal numbers of VCaP infected with either pBABE vector or NXTAR constructs were injected in the SCID mice. Palpable tumors were formed around week 5 that were measured twice a week thereafter.

[6] = system: AR; test: Immunoblotting of AR protein in prostate cancer cells; assay type: cell-based, human
Method: Cells were harvested, lysed by sonication in receptor lysis buffer (see e.g., Mahajan et al. (2010) PLoS One) and 20-50 μg of protein lysates were fractionated by SDS-PAGE, and transferred onto a PVDF membrane (Immobilon, Cat #IPVH00010). After blocking in 5% nonfat dry milk (RPI, Cat #M17200) (or 3% BSA, Goldbio, Cat #A-420-500), membranes were incubated with the following monoclonal antibodies: AR (SCBT, Cat #sc-7305; RRID:AB 626671), pY276-AR (29), ACK1 (SCBT, sc-28336; RRID:AB 626629), pACK1 (Upstate, 09-142; RRID:AB 612088), EZH2, and Actin. The signals were visualized by using the enhanced chemiluminescence (ECL; Pierce, 32106) system.

[7] = 22Rv1 and VCaP cells infected with retroviral NXTAR construct

B1: NXTAR: long non-coding RNA, 1476-nt transcript (SEQ ID NO: 58), expressed from retroviral or plasmid constructs (nucleic acid, listed as Homo sapiens)
chain: GGAAAAGGAAGGCTGCACAGAAGAACTGGCATTTGTGTTCTGCCTACAAAGCTGAAAAGGATTTCACCCAAATCAGGGAAGATCAGCCTTATGAGGTGGATATTATTGCCACAATAATTTTCCAGATGAAAAATGGAGGCCCAGAGATGTTAAGGAATTTGCCCAAGATCATGAAAAGACACTCTCCCCTATTGAGATGTCATGCAAGGATCAGTGCTGTGTGAAAATCCACATGAAGCAGGAAATGCAGGTGGTGGTGTCCAATCTGATTTCAAGATCTGAGAAGCTGTGCACTGCCTGAAAGGTATCTATTTAAGGTGTCACCAGACTCCTGCTCCACTCCTGCCCAAGGCCCAGCCCATCCAAGAGCAAAAGGCAAGTGGTGTTACAACCTTGGGATTTCCTGTATCTGCCCTCTTGCGGATAGCAGGACAGAGTCACAGCTGCATTAAATTCGCTTAAGACTTATTGAGACACTTCAACACTTCAACAACGACCTGTGAGATTAAGATTATTATTTTAAATTTACAGAAGGGGAAACTAAGAATTATAGACATGAAGTGACTCACCTATGACCACCTGGTGATAGAACCAGGACTAGAGCTCAGGTATGAAGATTTCTGGGGGAGTCCCTGAAAAAAAGGCTCCATATGGAATTACAATGTGGAAAAGGCCAAGGCCTCACCAACCCTTTTCTCTTCAACACCTGGATCCCTAAGTCCTTATTCGTAACCTCCTCTTTGGACAAGGTTTTGGTAGACAAAGCCAGAGCCTCTTGCACTGAGAAAGACAAATTCTCCTCTTGCAGTGAACCACAGGTAAATGCTCCAATAGAGAGTCCAAGCCAAACCTCCGGGTGTTATTCATGACCCAGGCAAGTCTGCTTTCTCATTCCCCCTATCTCTAGACCGTTTTCCATTTGGGCTTCCTTTTCTTCTTTTATCCTCAAAGAAACATGTTTCCTTCTAGTAGGTTTGGCTGCCACCACTAGGGTCCTGGCTACAACTGGCCCTCAGGTAACTCTCTCACCTCTGAGTTGGATAGTATCCTCTCTCGTCCCCATACACAAGTGTTTCTCTTCCCAGACACCTTCCTTACACAATTTCCCATTTCTTTCTCATCTCACCCTTGCTTTAATCAACATAGTTCTTTCCCCTGAGATTACTCTTCAGCCTTTCTTGTTGAAGCACTGCCCAGTGGTTCTCTTGGGATTTCCATTTCTCTCCCCTCAGCTCTCTTGGTACCAAATTCTGTAAGCTTCTCTGGTTTTTGGTTTCTCTTCCTTCTTTTCCTTCCAGGCAACATTTACTCAATCTAGGCTTGGATGATCAGGTACTTCTGCCAGCCTGCCCACTAGGGAACTCTGGGCTAGGAATATGTCTCAATGGCACCATTATATTTGGAAGGACGCTTCTGTATTTACACTGAACACACTAAAATACTAAACTTGAAGCCAAAATCCCCTCTCTGGCTCCA
[1]; 22Rv1 cells expressing NXTAR, 5 days
  sensitivity to abiraterone: further sensitized them
[1]; VCaP and 22Rv1 cells expressing NXTAR
  proliferation upon enzalutamide treatment: significantly compromised proliferation
[1]; VCaP and 22Rv1 cells, NXTAR expression vs pBABE vector
  proliferation: severe loss of proliferation
[2]
  EZH2 binding in RNA pull-down: EZH2 could bind to NXTAR RNA
[3]; [7]
  AR mRNA level: significant decrease in AR mRNA level
  KLK3 expression: significant loss of expression
  TMPRSS2 expression: significant loss of expression
[3]; LNCaP and 22Rv1 cells, DHT 10 nM overnight, NXTAR restoration
  AR and KLK3/PSA levels post-DHT-treatment: significantly compromised upon NXTAR restoration
[3]; VCaP cells, NXTAR overexpression (rescue experiment)
  AR levels: significant loss of AR levels
[4]
  AR-V7 expression: significantly compromised
[5]; NXTAR overexpressing vs vector-expressing VCaP cells
  tumor growth: significant reduction in tumor growth
[5]; immunoblotting of tumor lysates
  AR protein levels in tumors: significant reduction in AR protein levels
[5]; tumor weights and volume
  tumor burden: significantly reduced
[6]; 22Rv1 cells, NXTAR construct 0.25-2 μg, 48 hrs
  AR protein: dose-dependent downregulation of AR
[6]; LNCaP and 22Rv1 cells, NXTAR plasmid 24, 48 and 72 hrs
  AR protein: decreased upon NXTAR expression in a time-dependent manner
[6]; VCaP and 22Rv1 cells, NXTAR expression
  AR expression (protein): loss of AR expression

— US12194057B2, “NXTAR-derived oligonucleotides and uses thereof” (Washington University, priority 2020, dated 2025)
